The record followed here is US20200062863A1 (CSL BEHRING, published 2020).

Positions count from the first letter of the chain named.

Test [1] deals with T1, human Factor XIIa-beta (human, UniProt P00748 354-615, limits assumed).
T1 construct: Bought from Enzyme Research Laboratories; also called FXIIa beta; FXIIa-beta
T1 sequence: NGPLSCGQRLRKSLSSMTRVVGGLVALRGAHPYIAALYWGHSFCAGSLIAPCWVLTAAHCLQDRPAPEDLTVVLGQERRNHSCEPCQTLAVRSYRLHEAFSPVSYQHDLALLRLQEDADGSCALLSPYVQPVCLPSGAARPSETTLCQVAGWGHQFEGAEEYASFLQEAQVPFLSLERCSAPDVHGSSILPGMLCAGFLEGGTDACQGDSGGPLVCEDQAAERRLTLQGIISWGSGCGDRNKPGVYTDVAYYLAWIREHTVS
Description: SPR (Biacore), purified IgG4 captured on anti-human IgG, FXIIa beta 0-40 nM, 1:1 fit, 25 C.

In test [2] the target is T2, Mu-FXII I438A mutant with C-terminal 8xHis-tag (mouse, UniProt Q80YC5 20-597).
T2 construct: Culture supernatant; also called mutant f) I438A
T2 sequence: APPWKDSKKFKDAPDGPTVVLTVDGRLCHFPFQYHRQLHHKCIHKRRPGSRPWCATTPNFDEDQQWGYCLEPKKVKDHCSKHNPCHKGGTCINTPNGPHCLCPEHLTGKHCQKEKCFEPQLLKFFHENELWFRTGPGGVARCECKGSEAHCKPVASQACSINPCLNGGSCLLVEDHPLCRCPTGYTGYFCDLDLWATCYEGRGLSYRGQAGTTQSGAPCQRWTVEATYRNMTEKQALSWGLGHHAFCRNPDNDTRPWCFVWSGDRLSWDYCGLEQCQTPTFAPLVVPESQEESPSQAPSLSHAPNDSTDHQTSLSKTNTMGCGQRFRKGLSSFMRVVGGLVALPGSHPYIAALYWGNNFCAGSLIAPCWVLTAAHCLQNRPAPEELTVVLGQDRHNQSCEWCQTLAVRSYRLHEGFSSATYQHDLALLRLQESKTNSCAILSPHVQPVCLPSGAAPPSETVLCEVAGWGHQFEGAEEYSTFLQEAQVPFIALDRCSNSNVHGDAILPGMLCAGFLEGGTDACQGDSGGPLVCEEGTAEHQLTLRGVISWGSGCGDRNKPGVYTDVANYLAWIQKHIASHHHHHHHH
Description: Western blot, non-reducing, 3F7 mAb detected with anti-human IgG-FITC. The protocol: (§1) Proteins were then transferred electrophoretically onto nitrocellulose filters and blocked for 1 hour in 5% Milk powder in Tris-buffered saline with 0.05% Tween-20 (TTBS). Filters were then incubated for 1 hour with either 3F7 mAb or an anti-His mAb 3H3 (both at […] in TTBS with 5% Milk powder), washed thoroughly with TTBS, then incubated for a further hour with anti-human IgG-FITC or anti-mouse IgG-FITC, respectively (Millipore, USA; both at 0.25 mg/ml in TTBS with 5% Milk powder). Following further washing of membranes in TTBS, Ab-FITC bound proteins were visualized using a Typhoon variable mode analyzer (GE Healthcare, USA).

Test [3] has as its target T3, Mu-FXII N398K mutant with C-terminal 8xHis-tag (mouse, UniProt Q80YC5 20-597).
T3 construct: Mouse to rat residue change; culture supernatant; also called mutant c) N398K
T3 sequence: T2 sequence with N379K, A419I
Described as above. As for the experimental part:
as §1

Test [4] addresses T4, human FXIIa (human, UniProt P00748 20-615, limits assumed).
T4 sequence: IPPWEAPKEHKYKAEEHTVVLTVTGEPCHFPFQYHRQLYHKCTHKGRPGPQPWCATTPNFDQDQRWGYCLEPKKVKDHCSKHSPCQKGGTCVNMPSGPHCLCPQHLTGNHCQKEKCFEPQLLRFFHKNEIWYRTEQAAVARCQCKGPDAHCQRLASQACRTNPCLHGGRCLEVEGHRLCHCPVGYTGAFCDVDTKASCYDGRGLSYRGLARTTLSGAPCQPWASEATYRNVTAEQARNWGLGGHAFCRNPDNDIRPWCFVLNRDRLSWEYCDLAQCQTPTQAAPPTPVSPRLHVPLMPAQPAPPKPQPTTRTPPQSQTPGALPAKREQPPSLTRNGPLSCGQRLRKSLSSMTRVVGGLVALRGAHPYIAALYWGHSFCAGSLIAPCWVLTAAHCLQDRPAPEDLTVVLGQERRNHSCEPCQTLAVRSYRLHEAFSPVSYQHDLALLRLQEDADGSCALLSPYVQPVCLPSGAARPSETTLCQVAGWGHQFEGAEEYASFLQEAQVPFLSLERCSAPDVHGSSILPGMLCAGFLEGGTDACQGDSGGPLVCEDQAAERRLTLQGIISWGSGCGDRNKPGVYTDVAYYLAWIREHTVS
The experiment in a line: cell-based or functional assay.

B1: monoclonal antibody 3F7 (fully human IgG4/lambda) (antibody, V domains shown)
VH: EVQLLESGGGLVQPGGSLRLSCAASGFTFSKYIMQWVRQAPGKGLEWVSGIRPSGGTTVYADSVKGRFTISRDNSKNTLYLQMNSLRAEDTAVYYCARALPRSGYLISPHYYYYALDVWGQGTTVTVSS
VL: QSELTQPPSASGTPGQRVTISCSGSSSNIGRNYVYWYQQVPGTAPKLLIYSNNQRPSGVPDRFSGSKSGTSASLVISGLRSEDEADYYCAAWDASLRGVFGGGTKLTVLG
notes: also called 3F7 mAb; MAb 3F7
In test [1], B1 had a Kd of 8.6 nM, a koff of 0.0011 s⁻¹ and a kon of 120000 M⁻¹ s⁻¹. Besides, the binding result in test [2] is “no binding”. Further, in test [3], the binding result is “no binding”. Besides, the “potency in the FXIIa amidolytic activity assay, against OT-2” value in test [4] was roughly 2 fold.
